From patent US20130129739A1 (Bayer, published 2013)
Changes are numbered by the printed parent chain. Values joined by “and” are separate entries in the source; they are usually repeats but may differ in a detail not shown here. Identical values can stand only once.

Tests used:
[1] = target: T1, human prolactin receptor (PRLR) on cells (human, UniProt P16471 25-622); assay: cell-based or functional assay
T1 sequence (looked up): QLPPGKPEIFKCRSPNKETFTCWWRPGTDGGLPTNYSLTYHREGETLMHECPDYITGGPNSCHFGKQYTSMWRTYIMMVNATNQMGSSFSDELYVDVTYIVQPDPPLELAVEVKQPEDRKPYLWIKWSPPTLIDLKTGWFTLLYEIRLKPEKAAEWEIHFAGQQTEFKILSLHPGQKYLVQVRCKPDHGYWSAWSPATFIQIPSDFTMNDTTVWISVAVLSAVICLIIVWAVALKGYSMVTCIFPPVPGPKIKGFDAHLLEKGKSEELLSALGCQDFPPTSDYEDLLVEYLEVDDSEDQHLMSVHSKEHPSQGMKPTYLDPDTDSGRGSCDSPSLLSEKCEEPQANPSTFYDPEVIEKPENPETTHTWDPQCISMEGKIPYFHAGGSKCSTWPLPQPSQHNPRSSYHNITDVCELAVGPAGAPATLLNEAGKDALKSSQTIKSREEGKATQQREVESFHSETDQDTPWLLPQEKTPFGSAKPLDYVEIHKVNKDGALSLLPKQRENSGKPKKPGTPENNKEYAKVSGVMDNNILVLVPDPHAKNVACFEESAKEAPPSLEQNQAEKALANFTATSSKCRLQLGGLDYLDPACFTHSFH

[2] = target: T2, extracellular domain of human PRLR (monomeric, soluble) (human, UniProt P16471 25-234); assay: SPR (Biacore), IgG1 directly immobilized, monomeric human PRLR ECD from HEK293 as analyte
T2 construct: also called ECD-PRLR; ECD of PRLR
T2 sequence: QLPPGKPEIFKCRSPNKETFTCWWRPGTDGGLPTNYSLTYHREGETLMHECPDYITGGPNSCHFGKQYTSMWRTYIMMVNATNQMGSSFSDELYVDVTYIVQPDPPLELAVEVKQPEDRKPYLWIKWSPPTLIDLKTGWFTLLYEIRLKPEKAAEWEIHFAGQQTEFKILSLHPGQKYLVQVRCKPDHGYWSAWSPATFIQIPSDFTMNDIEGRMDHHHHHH

[3] = target: T1, human prolactin receptor (PRLR) on cells; assay: cell-based or functional assay; remark: listed apart in the source
[4] = target: T2, extracellular domain of human PRLR …; assay: ELISA: plate coated with human PRLR extracellular domain, Fab-containing E. coli supernatant, anti-flag-HRP, Amplex Red
Procedure: 96 well microtiter plates were coated with 1 μg per milliliter of human PRLR. Plates were incubated over night at 4° C. After blocking with PBS buffer containing 3% bovine serum albumin, normalized E. coli-derived supernatants containing the Fab variants were added. Detection of formed complexes occurred via the addition of an anti-flag antibody (Sigma, A8592) labeled with horseradish peroxidase.

B1: 002-H08 (antibody, V domains shown)
VH: QVELLESGGGLVQPGGSLRLSCAASGFTFSSYGMHWVRQAPGKGLEWVSGVSWNGSRTHYADSVKGRLTISRDNSKNTLYLQMNSLRAEDTAVYYCARGGDFDYWGQGTLVTVSS
VL: QSVLTQPPSASGTPGQRVTISCSGSSSNIGSNDVYWYQQLPGTAPKLLIYDNNKRPSGVPDRFSGSKSGTSASLAISGLRSEDEADYYCQSYDSSLSGSWVFGGGTKLTVLG
notes: Tested as human IgG1
B1 was tested, and the “IC50, inhibition of prolactin-activated Ba/F cell proliferation (human PRLR)” value [1] was 4.8 nM and 0.72 µg/ml, the Kd [2] was 1.8 nM and the koff [2] was 0.0002 s⁻¹.

B2: 006-H08 (scFv format) (scFv, V domains shown)
VH: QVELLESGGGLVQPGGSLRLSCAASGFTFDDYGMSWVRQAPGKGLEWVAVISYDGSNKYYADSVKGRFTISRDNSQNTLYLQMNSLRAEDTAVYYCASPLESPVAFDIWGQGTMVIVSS
VL: DIVLTQPPSASGTPGQRVTISCSGSNSNIGSNPVNWYQQLPGTAPKLLIYDNNKRPSGVPDRFSGSKSGTSASLAISGLRSEDEADYYCQSYDTGLSGWVFGGGTKLTVLG
For B2, the “Inhibition of phosphorylation of ERK1/2 in % at 7.5 µg/ml (ELISA, prolactin-treated T47D lysates)” value [3] was 100%, the “Inhibition of phosphorylation of PRLR in % at 7.5 µg/ml (ELISA, prolactin-treated T47D lysates)” value [3] was 100% and the “Inhibition of phosphorylation of STAT5 in % at 7.5 µg/ml (ELISA, prolactin-treated T47D lysates)” value [3] was 100%.

B3: 002-H06 (Fab format) (Fab, V domains shown)
VH: QVELLESGGGLVQPGGSLRLSCAASGFTFANYGLTWVRQAPGKGLEWVAVISFNGDKKYYADSVKGRFTISRDNSKNTLYLQMNSLRAEDTAVYYCASPLESPVAFDIWGQGTLVTVSS
VL: B2 VL with D1Q, I2S, N26Y, S31G, D51G, N53S, K54N, T94S, G95S, W99S
For B3, the “Inhibition of phosphorylation of ERK1/2 in % at 7.5 µg/ml (ELISA, prolactin-treated T47D lysates)” value [3] was 86%, the “Inhibition of phosphorylation of PRLR in % at 7.5 µg/ml (ELISA, prolactin-treated T47D lysates)” value [3] was 92% and the “Inhibition of phosphorylation of STAT5 in % at 7.5 µg/ml (ELISA, prolactin-treated T47D lysates)” value [3] was 72%.

B4: 002-H08 (Fab format) (Fab, V domains shown)
VH: B1 VH
VL: B1 VL
In the case of B4, the “Inhibition of phosphorylation of ERK1/2 in % at 7.5 µg/ml (ELISA, prolactin-treated T47D lysates)” value [3] is reported as 100%, the “Inhibition of phosphorylation of PRLR in % at 7.5 µg/ml (ELISA, prolactin-treated T47D lysates)” value [3] is reported as 100% and the “Inhibition of phosphorylation of STAT5 in % at 7.5 µg/ml (ELISA, prolactin-treated T47D lysates)” value [3] is reported as 98%.

B5: 006-H07 (scFv format) (scFv, V domains shown)
VH: QVELLESGGGLVQPGGSLRLSCAASGFTFEDHGMSWVRQAPGKGLEWVSLISWDDGSNKYYADSVKGRFTISRDNSKNTLYLQMNSLRAEDTAVYYCATSLRATAFDTWGQGTLVTVSS
VL: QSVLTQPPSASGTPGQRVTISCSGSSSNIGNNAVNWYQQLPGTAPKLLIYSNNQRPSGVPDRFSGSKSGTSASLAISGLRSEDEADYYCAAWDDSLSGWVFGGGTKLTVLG
For B5, the “Inhibition of phosphorylation of ERK1/2 in % at 7.5 µg/ml (ELISA, prolactin-treated T47D lysates)” value [3] was 85%, the “Inhibition of phosphorylation of PRLR in % at 7.5 µg/ml (ELISA, prolactin-treated T47D lysates)” value [3] was 88% and the “Inhibition of phosphorylation of STAT5 in % at 7.5 µg/ml (ELISA, prolactin-treated T47D lysates)” value [3] was 73%.

B6: 001-E06 (Fab format) (Fab, V domains shown)
VH: QVELLESGGGLVQPGGSLRLSCAASGFTFSSYWMSWVRQAPGKGLEWVSSVSDTGTDTHYADSVKGRFTISRDNSKNTLYLQMNSLRAEDTAVYYCAKTPLAYSSGWYYFDYWGQGTLVTVSS
VL: B2 VL with N26S, P33T, D51R, N53Y, K54Q, T94S, G95S, W99S
For B6, the “Inhibition of phosphorylation of ERK1/2 in % at 7.5 µg/ml (ELISA, prolactin-treated T47D lysates)” value [3] was 45%, the “Inhibition of phosphorylation of PRLR in % at 7.5 µg/ml (ELISA, prolactin-treated T47D lysates)” value [3] was 63% and the “Inhibition of phosphorylation of STAT5 in % at 7.5 µg/ml (ELISA, prolactin-treated T47D lysates)” value [3] was 36%.

B7: 002-H06 (antibody, V domains shown)
VH: B3 VH
VL: B2 VL with D1Q, I2S, N26Y, S31G, D51G, N53S, K54N, T94S, G95S, W99S
notes: Tested as human IgG1
B7 was tested, and the “IC50, inhibition of prolactin-activated Ba/F cell proliferation (human PRLR)” value [1] was 0.54 µg/ml and 3.6 nM, the Kd [2] was 2.7 nM and the koff [2] was 0.00054 s⁻¹.

B8: 005-C04-L2-1-25-0 (Fab, V domains shown)
VH: EVQLLESGGGLVQPGGSLRLSCAASGFTFSSYWWHWVRQAPGKGLEWVSDIARASSYTNYADSVKGRFTISRDNSKNTLYLQMNSLRAEDTAVYYCARGLDARRMDYWGQGTLVTVTS
VL: QSVLTQPPSASGTPGQRVTISCTGSSSNIGAGYVVHWYQQLPGTAPKLLIYRNNWRPSGVPDRFSGSKSGTSASLAISGLRSEDEADYYCAAWDDSLNGWLFGGGTKLTVLG
notes: Maturated 005-C04 variant; Fab in E. coli supernatant, flag-detected
B8: binds [4].

B9: 005-C04-L2-1-25-4 (Fab, V domains shown)
VH: B8 VH with W34N, A52S, A54L, S56P
VL: B8 VL with W55Q, P57Q
notes: as for B8
B9: binds [4].

B10: 005-C04-L2-1-25-5 (Fab, V domains shown)
VH: B8 VH with W34N, I51M, R53S, A54L, S56P, N59G
VL: B8 VL with W55Q, P57Q
notes: as for B8
B10: binds [4].

B11: 005-C04-L2-1-25-7 (Fab, V domains shown)
VH: B8 VH
VL: B8 VL with A31Y
notes: as for B8
B11: binds [4].

B12: 005-C04-L2-1-28-7 (Fab, V domains shown)
VH: B8 VH with W34N, I51M, A52S, R53S, A54L, N59G
VL: B8 VL with W55V, P57Q
notes: as for B8
B12: binds [4].

B13: 005-C04-L2-1-31-7 (Fab, V domains shown)
VH: B8 VH with A54L, S56P
VL: B8 VL with P57Q
notes: as for B8
B13: binds [4].

B14: 005-C04-L2-1-33-7 (Fab, V domains shown)
VH: B8 VH with W34N, A54L, S56P, N59G
VL: B8 VL with W55V, P57Q
notes: as for B8
B14: binds [4].

B15: 005-C04-L2-1-36-6 (Fab, V domains shown)
VH: B8 VH with W34N, I51M, R53S, A54L
VL: B8 VL with P57Q
notes: as for B8
B15: binds [4].

B16: 005-C04-L2-1-38-3 (Fab, V domains shown)
VH: B8 VH with W34N, A52S, A54L
VL: B8 VL with A31Y
notes: as for B8
B16: binds [4].

B17: 005-C04-L2-1-40-2 (Fab, V domains shown)
VH: B8 VH with W34N, A52S, S56P, N59G
VL: B8 VL with W55Q, P57Q
notes: as for B8
B17: binds [4].

B18: 005-C04-L2-1-40-7 (Fab, V domains shown)
VH: B8 VH with W34N, R53S, N59G
VL: B8 VL with P57Q
notes: as for B8
B18: binds [4].

B19: 005-C04-L2-1-42-0 (Fab, V domains shown)
VH: B8 VH with W34N, N59G
VL: B8 VL with P57Q
notes: as for B8
B19: binds [4].

B20: 005-C04-L2-1-47-0 (Fab, V domains shown)
VH: B8 VH with W34N, A52S, A54L, S56P
VL: B8 VL
notes: as for B8
B20: binds [4].

B21: 005-C04-L2-1-48-3 (Fab, V domains shown)
VH: B8 VH with W34N, A52S, S56P
VL: B8 VL with W55Q, P57Q
notes: as for B8
B21: binds [4].

B22: 005-C04-48-1 (Fab, V domains shown)
VH: B8 VH with W34N, A52S
VL: B8 VL with A31Y, W55Q
notes: as for B8
B22: binds [4].
